Results as given in article PMC8934283 (Nature, 2022).

Experiments:
Assay in all cases: cryo-EM structure
[1] = biological target: ribosomal protein uS21 (E. coli, UniProt P68679 1-71)
[2] = biological target: ribosomal protein uS2 (E. coli, UniProt P0A7V0 1-241)
[3] = biological target: ribosomal protein uS3 (E. coli, UniProt P0A7V3 1-233)
[4] = biological target: ribosomal protein uS11 (E. coli, UniProt P0A7R9 1-129)
[5] = biological target: ribosomal protein uS5 (E. coli, UniProt P0A7W1 1-166)

Measured: binding result

B1: E. coli SmrB inactive mutant (99DLH101-ALA) (enzyme)
chain: MKKKTTLSEEDQALFRQLMAGTRKIKQDTIVHRPQRKKISEVPVKRLIQEQADASHYFSDEFQPLLNTEGPVKYVRPDVSHFEAKKLRRGDYSPELFLALAGLTQLQAKQELGALIAACRREHVFCACVMHGHGKHILKQQTPLWLAQHPHVMAFHQAPKEYGGDAALLVLIEVEEWLPPEL
binds: all assays above
